Reference: patent US20140308271A1 (GLENMARK PHARMACEUTICALS S A, published 2014)
Residue numbers refer to the chain shown, from its start. Values belong to the binder of their own block, whether it stands above or below them.

What was measured:
[1] = biological target: T1, recombinant human TL1A-his (processed secreted human TL1A with an N-terminal his-tag) (human, UniProt O95150 72-251); experiment: SPR (BIAcore 2000), antibody captured on protein-A, his-tagged human TL1A as analyte
T1 construct: also called recombinant histidine tagged human TL1A; histidine-tagged human TL1A
T1 sequence: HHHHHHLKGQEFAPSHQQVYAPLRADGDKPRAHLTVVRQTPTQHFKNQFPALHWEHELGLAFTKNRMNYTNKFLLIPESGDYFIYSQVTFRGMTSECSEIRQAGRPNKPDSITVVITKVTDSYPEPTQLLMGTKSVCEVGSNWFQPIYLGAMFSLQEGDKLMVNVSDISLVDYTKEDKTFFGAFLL
Method: Kinetic binding affinity constants (KD) were measured on protein-A captured antibody using recombinant histidine tagged TL1A as analyte. Measurements were conducted on a BIAcore 2000 (GE Healthcare—BIAcore, GE Healthcare Europe GmbH, Glattbrugg, Switzerland) at room temperature, and analyzed with the BiaEvaluation software (BIAcore; v4.1. GE Healthcare Europe GmbH).
Following this capture step, the recombinant histidine tagged human TL1A was injected at different concentrations (1.25 to 125 nM) on the flow-path 1 and 2 (flow-path 1 being used as reference) at a 30 μl/min flow rate. After each binding event, surface was regenerated with glycine buffer pH 1.5 injected for 20 sec (30 μL/min).
Measurements (sensorgram: fc2-fc1) were best fitted with a 1:1 analyte model without mass transfer. To account for the experimental variations in protein-A captured antibody at the beginning of each measurement, the Rmax value was set to local in all fits. Dissociation times were of at least 300-600 seconds. Measurements were performed in duplicate and included zero-concentration samples for referencing. The Chi2 value represents the sum of squared differences between the experimental data and reference data at each point; while the plots of residuals indicate the difference between the experimental and reference data for each point in the fit. Both Chi2 and residual values were used to evaluate the quality of a fit between the experimental data and individual binding models.

[2] = biological target: extracellular part of mouse (mus musculus) TL1A protein (mouse); experiment: ELISA on coated extracellular part of TL1A (2 µg/mL), dose dilution of chimeric 5G6, HRP anti-human IgG
[3] = biological target: T2, extracellular part of human (homo sapiens) TL1A protein (human, UniProt O95150 57-251); experiment: as above
T2 construct: also called human TL1A
T2 sequence: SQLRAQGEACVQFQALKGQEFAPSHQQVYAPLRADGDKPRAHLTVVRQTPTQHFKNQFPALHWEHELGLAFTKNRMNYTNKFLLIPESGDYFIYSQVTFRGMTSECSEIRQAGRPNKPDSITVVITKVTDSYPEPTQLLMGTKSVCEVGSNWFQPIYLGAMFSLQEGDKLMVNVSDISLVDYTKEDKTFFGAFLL
Method: (§1) The reactivity of the parental 5G6 antibody (produced as a chimeric antibody with Human Fc) on the extracellular part of TL1A from diverse species was tested by ELISA. The extracellular part of TL1A protein corresponding to human (homo sapiens), rat (ratus norvegicus), mouse (mus musculus) and cynomologus monkey (macaca fascicularis) sequences (SEQ ID NOS: 38, 39, 40 and 41, respectively) was immobilized on high binding 96-well plates (Costar, USA; distributor VWR AG, Nyon, Switzerland) overnight at a concentration of 2 μg/mL at 4° C. in PBS. Plates were blocked with 2% BSA albumin (BSA, Sigma-Aldrich Chemie, Buchs, Switzerland) at RT for one hour. The blocking solution was removed and a dose dilution of 5G6 antibody was applied to the plates. Plates were incubated at RT for 60 minutes, washed six times with PBS 0.01% Tween-20 and the TMB substrate (Bio-rad Laboratories AG, Reinach, Switzerland) was added to the plates. […] The plates were read for absorbance at 450 nm by a microplate reader (Biotek, USA; distributor: WITTEC AG, Littau, Switzerland).

[4] = biological target: T3, extracellular part of rat (ratus norvegicus) TL1A protein (rat, UniProt Q8K3Y7 61-252); experiment: as above
T3 construct: also called rat TL1A
T3 sequence: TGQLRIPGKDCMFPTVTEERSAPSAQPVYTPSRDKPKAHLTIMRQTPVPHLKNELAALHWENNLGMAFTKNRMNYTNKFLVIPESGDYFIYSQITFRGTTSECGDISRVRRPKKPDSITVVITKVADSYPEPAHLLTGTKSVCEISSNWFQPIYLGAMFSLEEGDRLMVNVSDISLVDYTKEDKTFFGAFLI
Method: as §1

[5] = biological target: T4, extracellular part of cynomologus monkey (macaca fascicularis) TL1A protein (cynomolgus monkey (macaca fascicularis), UniProt O95150 57-251 (human entry)); experiment: as above
T4 construct: also called cyno TL1A; cynomologus monkey TL1A
T4 chain: T2 sequence with F13L, A15D, F54L, I93V
Method: as §1

B1: 5G6 chimeric antibody (murine 5G6 variable domains fused to human IgG1 heavy chain constant domains and a human kappa constant domain) (antibody, V domains shown)
VH: QVQLQQPGSVLVRPGASVKVSCKASGYTFTSSWMHWAKQRPGQGLEWIGEIHPNSGGTNYNEKFKGKATLTVDTSSSTAYVDLSSLTSEDSAVYYCARGDYYGYVSWFAYWGQGTLVTVSS
VL: DIQMNQSPSSLSASLGDTITITCHASQNINVLLSWYQQKPGNIPKLLIYKASNLHTGVPSRFSGSGSGTGFTFTISSLQPEDIATYYCQQGQSYPYTFGGGTKLEIKR
notes: Human IGHG1 / kappa chimera; also called Chimera; parental 5G6
Kd [1]: 0.728 nM
EC50 (read off the curve) [2]: 20 ng/mL
EC50 (read off the curve) [3]: ~3 ng/mL
EC50 (read off the curve) [4]: ~8 ng/mL
EC50 (read off the curve) [5]: ~3 ng/mL

B2: VH4/VL1 humanized 5G6 antibody (antibody, human IgG1, kappa, V domains shown)
VH: QVQLVQSGAEVKKPGASVKVSCKASGYTFTSSWMHWARQAPGQGLEWIGEIHPNSGGTNYAQKFQGRVTMTVDTSISTAYMELSRLRSDDTAVYYCARGDYYGYVSWFAYWGQGTLVTVSS
VL: B1 VL with N5T, L15V, T18R, I19V, H24Q, S34N, N42K, I43A, G70D, G100Q
Kd [1]: 0.681 nM

More lines, now with the values ahead:

Kd [1]: 0.857 nM
B3: VH2/VL2 humanized 5G6 antibody (antibody, human IgG1, kappa, V domains shown)
VH: B2 VH with V68A, M70L, I76S
VL: B1 VL with L15V, T18R, I19V, H24Q, N42K, I43A, G70D, G100Q

Kd [1]: 0.249 nM
B4: VH3/VL1 humanized 5G6 antibody (antibody, human IgG1, kappa, V domains shown)
VH: B2 VH with V68A
VL: B1 VL with N5T, L15V, T18R, I19V, H24Q, S34N, N42K, I43A, G70D, G100Q
